Assay results taken from patent US20070081998A1 (published 2007).
Substitutions are numbered along the chain they refer to.

Key:
[1] = target: T1, Aβ-derived diffusible ligands (ADDLs) (UniProt P05067 672-713); experiment: ELISA; reference is binding of the same antibody to Aβ40 monomer
T1 construct: domain: Aβ1-42; Soluble oligomers of Aβ1-42
Description: Affinity maturation was carried out to improve affinity and improve preferential binding to ADDL. To evaluate ADDL binding affinity of the humanized antibodies, BIACORE™ and titration ELISAs were conducted as disclosed herein. Briefly, Streptavidin-coated, 96-well microtiter plates (Sigma, St. Louis, Mo.) were coated with 10% biotinylated ADDL antigen (1 μM). A series of 2-fold dilutions of purified antibody, starting at 500 ng/mL was added to the ADDL captured plates and the plates were incubated for 2 hours at 25° C. […] A rabbit anti-goat IgG (H+L) HRP-conjugated (Bethyl Laboratories, Inc., Montgomery, Tex.) detection antibody was then added at a 1/2000 dilution in blocking solution and incubated for 1 hour at room temperature. After washing with PBS, HRP substrate, 3,3′,5′5-tetramethylbenzidine (ready-to-use TMB; Sigma, St. Louis, Mo.) was added and the reaction was stopped after 10 minutes with 0.5 N H₂SO₄. Absorbance at wavelength of 450 nm was read in a plate reader (model VICTOR V; Perkin Elmer, Boston, Mass.) and data were processed using EXCEL® work sheet.

[2] = target: T2, biotin-Aβ1-20 (UniProt P05067 672-691, not fully specified; biotin (site not stated)); experiment: BIACORE
T2 construct: domain: Aβ1-20; BIACORE antigen standing for monomeric Aβ peptide; also called biotinylated-Aβ1-20
T2 peptide (looked up): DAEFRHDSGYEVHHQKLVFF

[3] = target: T3, biotinylated ADDL (bADDL) (UniProt P05067 672-713, N-terminal biotin); experiment: cell-based or functional assay
[4] = target: T3, biotinylated ADDL (bADDL); experiment: BIACORE, Fab fragment against bADDL
[5] = target: T2, biotin-Aβ1-20; experiment: BIACORE, Fab fragment against biotinylated-Aβ1-20
[6] = target: T3, biotinylated ADDL (bADDL); experiment: BIACORE, bADDL as antigen; column Fab
[7] = target: T3, biotinylated ADDL (bADDL); experiment: BIACORE, bADDL as antigen; column IgG1 #1
[8] = target: T3, biotinylated ADDL (bADDL); experiment: BIACORE, bADDL as antigen; column IgG1 #2

B1: Hu20C2A3 (veneered version of clone A3, IgG2m4 isotype) (antibody, V domains shown)
VH: QVTLKESGPGLLKPTQTLTLTCTLSGFSLSTSGMGVGWFRQPPGKGLEWLAHIWWDDDKSYNPSLKSRLTISKDTSKNQVVLTITNVDPVDTATYYCARRQLGTRGTDAMDYWGQGTTVTVSS
VL: DVVMTQTPLSLPVTPGQPASISCRSSQSILHSNGNTYLEWYLQKPGQSPQLLIYKVSNRFSGVPDRFSGSGSGTDFTLKISRVEAEDVGVYYCLQTTRVPLTFGQGTKLEIKR
notes: to be checked against the listing; also called Hu20C2A3 produced in CHO; Hu20C2A3 produced in Pichia
[1]
  fold preference for ADDL binding versus Aβ40 monomer binding: 6 fold
[2]
  binding result: binds
[3]
  inhibition of bADDL binding to primary hippocampal neurons (alkaline phosphatase-streptavidin luminescence): 0.16 antibody to peptide ratio

B2: 20C28B Fab (Fab, V domains shown)
VH: B1 VH with G10A, L12V, F39I, G46A, I84M, V87M, T104L, G106S, T107I
VL: B1 VL with T7S, Q17E
[4]
  Kd: 1.1 nM
[5]
  Kd: 1.1 nM

B3: 20C2-6A Fab (Fab, V domains shown)
VH: B1 VH with G10A, L12V, L24F, F39I, G46A, I84M, V87M, T104L, G106S, T107I
VL: B1 VL with T7S, Q17E, L94F, T96S, T97S
[6]
  Kd: 42 nM

B4: 20C2-2A Fab (Fab, V domains shown)
VH: B1 VH with G10A, L12V, L24F, F39I, G46A, I84M, V87M, T104L, G106S, T107I
VL: B1 VL with T7S, Q17E, L94F, T96A
[6]
  Kd: 28 nM

B5: 4b-H11 Fab (Fab, V domains shown)
VH: B1 VH with G10A, L12V, F39I, G46A, I84M, V87M, T104R, G106S, T107V
VL: B1 VL with T7S, Q17E
[4]
  Kd: 1.05 nM
[5]
  Kd: 1.33 nM

B6: 4a-A3 Fab (Fab, V domains shown)
VH: B1 VH with G10A, L12V, F39I, G46A, I84M, V87M
VL: B1 VL with T7S, Q17E
[4]
  Kd: 0.0823 nM
[5]
  Kd: 0.849 nM

B7: 4b-A7 Fab (Fab, V domains shown)
VH: B1 VH with G10A, L12V, F39I, G46A, I84M, V87M, T104K, R105L, G106A, T107L
VL: B1 VL with T7S, Q17E
[4]
  Kd: 0.376 nM
[5]
  Kd: 1.72 nM

B8: 20C2-5A Fab (Fab, V domains shown)
VH: B1 VH with G10A, L12V, L24F, F39I, G46A, I84M, V87M, T104L, G106S, T107I
VL: B1 VL with T7S, Q17E, L94F, T96S, T97S, R98F
[6]
  Kd: 41 nM

B9: 20C2-6A IgG1 (antibody, V domains shown)
VH: B1 VH with G10A, L12V, L24F, F39I, G46A, I84M, V87M, T104L, G106S, T107I
VL: DVVMTQSPLSLPVTPGEPASISCRSSQSILHSNGNTYLEWYLQKPGQSPQLLIYKVSNRFSGVPDRFSGSGSGTDFTLKISRVEAEDVGVYYCFQSSRVPLTFGQGTKLEIK
notes: IgG1 humanized A version; also called 4P1-22
[7]
  Kd: 0.0043 nM
[8]
  Kd: 0.024 nM

B10: clone A3 humanized by veneering, full IgG1 molecule (antibody, V domains shown)
VH: B1 VH
VL: B9 VL with S7T, E17Q, F94L, S96T, S97T
notes: also called Hu20C2A3 IgG1/kappa version
[2]
  binding result: binds

B11: 20C2-5A IgG1 (antibody, V domains shown)
VH: B1 VH with G10A, L12V, L24F, F39I, G46A, I84M, V87M, T104L, G106S, T107I
VL: B9 VL with R98F
notes: IgG1 humanized A version; also called SJ-p2-1F
[7]
  Kd: 0.317 nM
[8]
  Kd: 0.068 nM

B12: 20C2-2A IgG1 (antibody, V domains shown)
VH: B1 VH with G10A, L12V, L24F, F39I, G46A, I84M, V87M, T104L, G106S, T107I
VL: B9 VL with S96A, S97T
notes: IgG1 humanized A version; also called SJ-p1-18
[7]
  Kd: 0.015 nM
[8]
  Kd: 0.0003 nM

B13: 20C2-3A IgG1 (antibody, V domains shown)
VH: B1 VH with G10A, L12V, L24F, F39I, G46A, I84M, V87M, T104L, G106S, T107I
VL: B9 VL with S96G, R98F, V99I, L101G
notes: IgG1 humanized A version; also called SJ-p3-16
[7]
  Kd: 3.7 nM

B14: 20C2-8A IgG1 (antibody, V domains shown)
VH: B1 VH with G10A, L12V, L24F, F39I, G46A, I84M, V87M, T104L, G106S, T107I
VL: B9 VL with F94L, S96T, S97T
notes: IgG1 humanized A version; also called SJ-p2-39
[7]
  Kd: 0.003 nM
[8]
  Kd: 0.0007 nM

B15: 20C2-6B IgG1 (antibody, V domains shown)
VH: B1 VH with G10A, L12V, F39I, G46A, I84M, V87M, T104L, G106S, T107I
VL: B9 VL
notes: IgG1 humanized B version; also called 4P1-22
[7]
  Kd: 0.053 nM

B16: 20C2-24A IgG1 (antibody, V domains shown)
VH: B1 VH with G10A, L12V, L24F, F39I, G46A, I84M, V87M, T104L, G106S, T107I
VL: B9 VL with F94G, S96T, S97T, R98L
notes: IgG1 humanized A version; also called SJ-p2-44
[7]
  Kd: 0.114 nM

B17: 20C2-1A IgG1 (antibody, V domains shown)
VH: B1 VH with G10A, L12V, L24F, F39I, G46A, I84M, V87M, T104L, G106S, T107I
VL: B9 VL with S96A
notes: IgG1 humanized A version; also called SJ-p2-60
[7]
  Kd: 0.075 nM

B18: 20C2-8B IgG1 (antibody, V domains shown)
VH: B1 VH with G10A, L12V, F39I, G46A, I84M, V87M, T104L, G106S, T107I
VL: B9 VL with F94L, S96T, S97T
notes: IgG1 humanized B version; also called SJ-p2-39
[7]
  Kd: 0.013 nM
[8]
  Kd: 0.0008 nM

B19: Mouse-20C2 Fab (Fab, V domains shown)
VH: QVTLKESGPGILKPSQTLSLTCSLSGFSLSTSGMGVGWFRQPSGKGLEWLAHIWWDDDKSYNPSLKSRLTISKYTSRNQVFLTITSVDTADTATYYCARRQLGLRSIDAMDYWGQGTSVTVSS
VL: DVLMTQTPLSLPVSLGDQASISCRSSQSILHSNGNTYLEWYLQKPGQSPKLLIYKVSNRFSGVPDRFSGSGSGTDFTLKISRVEAEDLGVYYCFQGSLVPLTFGAGTKLELK
notes: Value in the Fab column of the row Mouse-20C2; also called murine 20C2
[6]
  Kd: 62 nM

B20: Mouse-20C2 antibody (IgG1) (antibody, V domains shown)
VH: B19 VH
VL: B19 VL
notes: value in the column IgG1 #1; also called murine 20C2
[7]
  Kd: 4.1 nM
